Results as given in PMC3977970.

Molecular target: T1, GST-PTPMT1 (human) (UniProt Q8WUK0)
T1 sequence: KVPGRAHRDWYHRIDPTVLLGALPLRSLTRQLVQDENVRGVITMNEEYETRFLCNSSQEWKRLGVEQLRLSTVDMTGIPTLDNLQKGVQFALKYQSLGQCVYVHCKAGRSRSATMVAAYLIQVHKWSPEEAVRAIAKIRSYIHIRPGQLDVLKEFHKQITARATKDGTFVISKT

- reduction of PTPMT1 phosphatase activity towards OMFP, compared to FLAG protein alone; MK-STYX incubated with GST-PTPMT1 at 1:1 (51%) to 2:1 (60%) mass ratio: 60%
Substance: FLAG-MK-STYX (from UniProt Q9Y6J8-1 2-313) (natural protein)
